{"source": "the nanobody polyreactivity screen of Harvey et al. (2022)"}
{"assay": "yeast display, Sf9 membrane polyspecificity reagent, FACS + sequencing; frameworks hold sequencing errors", "outline": "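A nanobody's polyreactivity label depends on the gate it was sorted from. Yeast display cells were stained with 10% biotinylated, detergent-solubilized Sf9 membrane reagent for 1 hour at 4 °C, enriched on streptavidin microbeads and sorted by FACS. The low and high (top ~1%) gates were set on anti-HA fluorescence for expression and streptavidin fluorescence for reagent binding.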"}
{"sequence": "QVQLVESGGGLVQAGGSLRLSCAASGRTFDVYAMGWYRQAPGKEREFVASITRSGASTYADSVKGRFTISRDNAKNTVYLQMNSLKPEDTAVYYCNAELDLDTGWDGFVAYDYWGQGTQVSVSS", "polyreactivity (PSR sort gate)": "low polyreactivity"}
{"sequence": "QVQLVESGGGLVQAGGSLRLSCAASGSIFAQYTMGWYRQAPGKERELVAVISINGVSTYYADSVKGRFTISRDNAKNTVYLQMNSLKPEDTAVYYCNAGISPYEALGYWGQGTQVTVSS", "polyreactivity (PSR sort gate)": "low polyreactivity"}
{"sequence": "QVQLVESWGALVQAGGSLRLSCAPSGSSKLMLWEGIDRRLGNKGSWLPLIVLVVLRNYADSVKGRFTISRDNAKNTLYLQMNSLKPDDTAVYYCAATPIGSGGWGDYWGQGTQVTLSS", "polyreactivity (PSR sort gate)": "low polyreactivity"}
{"sequence": "QVQLVESGGGLVQAGGSLRLSWAASGFGWYAMGWYRQAPGKEREFVAAISRGGGSTYYADSVKGRFTISRDNAKNTVYLQMNSLKPEDTAVYYCAAVYYRRISQGDTQTYYQYNYWGQGTQVTVSS", "polyreactivity (PSR sort gate)": "high polyreactivity"}
{"sequence": "QVQLVESGGGLVQAGGSLRLSCAASGRTFWGYPMGWYRQAPGKERELVAAISSGGSTHYADSVKGRFTISRDNAKNTVYLQMNSLKPEDTAVYYCAAAVGYYAFGTYPFDDWPYDYWGQGTQVTVSS", "polyreactivity (PSR sort gate)": "high polyreactivity"}
{"sequence": "QVQLVESGGGLVQAGGSLRLSCAASGSIFAKNAMGWYRQAPGKERELVAGIDFSGGSTYYADSVKGRFTLSRDNAKNTVYLQMNSLKPEDTAVYYCAADWAYKYELDYWGQGTQLTVSS", "polyreactivity (PSR sort gate)": "low polyreactivity"}
{"sequence": "QVQLVESGGGLVQAGGSLRISCAPSGSTFYKYTMGWYRQAPGKERELVAAISGSGTTTYYADSVKGRFTISRDNAKNTVYLRMNSLKPEDTAVYYCNTARGYDYGGLDYWGQGSQVTVSS", "polyreactivity (PSR sort gate)": "high polyreactivity"}
{"sequence": "QVQLVESGGGLVQAGGSLRLSCAASGIIFSYYAMGWYIQAPGKERELVAVINSGGSTYYADSVKGRFTISRDNAKNTVYLQMNSLKPEDTAVYYCAATIFVKFYYWGQGTQVTVSS", "polyreactivity (PSR sort gate)": "low polyreactivity"}
{"sequence": "QVHLVESGGGLVQAGGSLRLSCAAYGFIFYPYAMGWNRQEPGKERELVAAIDWNGGGTYYADSVKGRFTISRDNAKNTVYLQMNSLKPEDTAVYYCNTYGAYTFDYWGQGTQVTVSS", "polyreactivity (PSR sort gate)": "high polyreactivity"}
{"sequence": "QDQLVESGGGLVQAGGSLRLSCAASGSTFGYARGWYRQAPGKERELVAAITSTGGSTYYADSVKGRFTISRDNAKNTVYLQMNSLKPEDTAVYYCAAQVGRVYVVYPVYKYGYWGQGTQVTVSS", "polyreactivity (PSR sort gate)": "high polyreactivity"}
{"sequence": "QVQLVESGGGLVQAGGSLRLSCAASGFIIADYTMGWYRQAPGKERELVAAITRSGDSTYYADSVKGRFTISRDNAKNTVYLQMNSLKPEDTAVYYCNAVNDWYYAYYGVTSFRSYDYWGQGTQVTVSS", "polyreactivity (PSR sort gate)": "low polyreactivity"}
{"sequence": "QVQLVESGGGLVQAGGSLRLSCAASGSIFSINAMGWYRQAPGKERELVAVISWIGGNTYYADSVKGRFTISRDNAKNTVYLQMNSLKPEDTAVYYCAVATGPVSYRRYYWGQGTQVTVSS", "polyreactivity (PSR sort gate)": "high polyreactivity"}
{"sequence": "QVQLVESGGGLVQAGGSLRLSCAASGGIFKRNTMGWYRQAPGKERELGAGISWTGGRTYYADSVKGRFTISRDTAKNTVYLQMNSLKPEDTAVYYCAAKPLQGVRRVEYWGQGTQVTVSS", "polyreactivity (PSR sort gate)": "high polyreactivity"}
{"sequence": "HVQLQESGGGLVQAGGSMRLSCAESGSISELRPMGLYRKAPGKERELVAGISTGGSTNYADSVKGRFTISLDNAKNTVYLQMNSLKPEYTAVYFCAAASYCEGTYDYWGQGTQVTVRS", "polyreactivity (PSR sort gate)": "high polyreactivity"}
{"sequence": "QVQLVESGGGLVQAGGSLRLSCAASGNIFYAYAMGWYRQAPGKEREFVAAITKNGGSTYYADSVKGRFTISRDNAKNTVYLQMISLKPEYTAVYYCTAGGVYPRFTFLEQGYEMDYWGQGTQVTVSS", "polyreactivity (PSR sort gate)": "low polyreactivity"}
{"sequence": "QVQLVESGGGLVQAGGSLRLSCAASGITFYGYAMGWYRQAPGKERELVAAISGNGGRTYYADSVKGRFTISRDNAKNTVYLQMNSLKPEDTAVYYCNVKVRSRRTGDRYDYWGQGTQVTVSS", "polyreactivity (PSR sort gate)": "high polyreactivity"}
{"sequence": "QVQLVESGGGLVQAGGSLRLSCAASGRIFSDYAMGWYRQAPGKERELVAVISWDGTNTYYADSVKGRFTISRDNAKNTVYLQMNSLKPEDTAVYYCAATGTSYYSAYDYWGQGTQVTVSS", "polyreactivity (PSR sort gate)": "low polyreactivity"}
{"sequence": "QVQLVESGGGLVHAGGSLRLSCAASGSTFSRNVMVWYRQAPGKEWELVAAISRGGSTNYADSVKGRFTISRENAKNTVYLQMKSLKPEDTAVYYCNAPRLGKFYNWGQGTQVTVSS", "polyreactivity (PSR sort gate)": "low polyreactivity"}
{"sequence": "QVQLVESGGGLVQAGGSLRLSCAASGSTFGRYAMGWSRQAPGKEWELVAAISGRGGSTYYADSVKGRFTISRDNAKNTVYLQMNSLKPEDTAVYYCAVRYYSARYWYGYDYWGQGTQVTVSS", "polyreactivity (PSR sort gate)": "high polyreactivity"}
{"sequence": "QVQLVESGGRLVQAGGSLRLSCAASGFSFRGNAMGWYRQAPGKERELVATISRGGNTNYADSVKGRFTISRDNAKNTVYLQMNSLKPEDTAVYYCAAVSYIRSKVAYNYWGQGTQVTVSS", "polyreactivity (PSR sort gate)": "low polyreactivity"}
{"sequence": "QVQLVESGGGLVQAGGSLRLSCAASGFIFGYNGMGWYRQAPGKERELVAGITYSDGSTYYADSVKGRFTISRDNAKNTVYLQMNSLKPEDTAVYYCAVEVGYTDSPYSYDYWGQGTQVTVSS", "polyreactivity (PSR sort gate)": "low polyreactivity"}
{"sequence": "QVQLVESGGGLVQAGGSLRLSCAASGSIFDINAMGWYRQAPGKERELVAAISYGGGSTSYADSVKGRFTISRDNAKNTVYLQMNSLKPEDTAVYYCAAGYTQSPRDDSWGQGTQVTVSS", "polyreactivity (PSR sort gate)": "low polyreactivity"}
{"sequence": "QVQLVESGGGLVQAGGSLRLSCAASGIIFPFYVMGWYRQAPGKERELVAAITWSGDGTYYADSVKGRFTISRDNAKNTVYLQMNSLKPEDTAVYYCAAQWYYGGVKYYYWGQGTQVTVSS", "polyreactivity (PSR sort gate)": "low polyreactivity"}
{"sequence": "QVQLVESGGGLVQAGGSLRLSCAASGSNVPSYAMGWYRQAPGKERELVAAINSGGGTNYADSVKGRFTISRDNAKNTVYVQMNSLKPEDTAVYYCAKSRYDYTKTEGGYWGQGTQVTVSS", "polyreactivity (PSR sort gate)": "low polyreactivity"}
{"sequence": "QVQLVESGGGLVQAGGSLRLSCAAAGSTFLRNALGWSRPAPGKKVSWVATISYDGDSTYYADSVKGRFTISRDNAKNTVYLQMNSLKPEDTAVYYCAASYSLTFWDKDDYWGQGTQVTVSS", "polyreactivity (PSR sort gate)": "low polyreactivity"}
{"sequence": "QVQLVESGGGLVQAGGSLRLSCAASGNIFIRYAMGWYRQAPGKERELVAAISQSGGGTSYADSVKGRFRISRDNAKNTVYLQMNSLKPEDTAVSYCNVEKVGHFNSYGYDYWGQGTQVTVSS", "polyreactivity (PSR sort gate)": "low polyreactivity"}
{"sequence": "QDQHVESGGGLVQAGCSLRLSCAASGRTFTYNAMGWYRQAPGKERELVASISSRGGSTYYADSVKGRFTISRDNAKNTVYLQMNSLKPEDTAVYYCAARWRYQLSGSRLSYGKYDYWGQGTQVTVSS", "polyreactivity (PSR sort gate)": "high polyreactivity"}
{"sequence": "QVQLVESGGGLVQPGGSLRLSCAASGFILYGNAMGWYRQAPGKERELVAAISRRGGSTYYADSVKGRFTISRDNAKNTVYLQMNSLKPEDTAVYYCAKDGPGGGTRIYDYWGQGTQVTVSS", "polyreactivity (PSR sort gate)": "high polyreactivity"}
{"sequence": "QVQLVESVGGLVQAGGTLRLSCAASGRIFCIYAMGWYRPAPGKVRSLVATITGSGGSTYYADSVKGRFTISRDNAKNTVYLQLHSLKPEDTAVYYCAARYPVSGGYDYWGQGNQVTVSS", "polyreactivity (PSR sort gate)": "low polyreactivity"}
{"sequence": "QVHLVESGGGLVQAGGSLRLSSAASGSIFQYNAMGWYRQAPGKERELVAGITTGGDTNYADSVKGRFTISRDNAKNTVYLHMNSLKPEDTAVYYCAARFGQWVSAYDYWGQGTQVTVSS", "polyreactivity (PSR sort gate)": "low polyreactivity"}
{"sequence": "QDQLVESGGGLVQAGGSLRLSCAASGRTFFWNAMGWYRPAPGKERELVAAITWSGGSTYYADSVKGRFTISRDNAKNTVYLQMNSLKPEDPAVYYCAAVVTDYVWRSEYWGQGTQVTVSS", "polyreactivity (PSR sort gate)": "low polyreactivity"}
{"sequence": "QVQLVESGGGLVQAGGSLRLSCAASGRIFRENAMGWYRQAPGKERELVAAINRSGSRTYYADSVKGRFTISRDNAKNTVYLQMNSLKPEDTAVYYCATASSIRYDYWGQGTQVTVSS", "polyreactivity (PSR sort gate)": "high polyreactivity"}
{"sequence": "QVQLVESGGRLVQAGGSLRLSCAASGSTFYPYAMGWYRQAPGKERELVAAINGNGGRTYYADSVKGRFTISRDNAKNTVYLQMNSLKPEDTAVYYCAVVRVAWGHRSDYWGQGTQVTVSS", "polyreactivity (PSR sort gate)": "high polyreactivity"}
{"sequence": "QVQLVESGGGLVQAGGSLRLSCAASGSTITRYAMGWYRQAPGKERELVAVISRSGGSTYYADSVKGRFTISRDNAKNTVYLQMNSLKPEDTAVYYCAAKYYGGRRSPYSYGYWGQGTQVTVSS", "polyreactivity (PSR sort gate)": "high polyreactivity"}
{"sequence": "QVQLVESGGGLVQAGGSLRLSSAAAGSTFGRYAMGWYRQAPGKEREFVAAITQGGTNTYYADSVKGRFTISRDNAKNTVYLQMNSLKPEDTAVYYCARVRRYPLRYNYWGQGTQVTVSS", "polyreactivity (PSR sort gate)": "high polyreactivity"}
{"sequence": "QVQLVESGGGLVHAGGSLRLSCAASGSIFTGYAMGWYRQAPGKERELVAAIDYRSGSTYYADSVKGRFTISRDNAKNTVYLQMNSLKPEDTAVYYCAAPAGWGFDEAFGYGYWGQGTQVTVSS", "polyreactivity (PSR sort gate)": "low polyreactivity"}
{"sequence": "QVQLVESGGGLVQAGGSLRLSCAASGSTFFPYAMGWYRQAPGKERELVAGISSDGGTSYADSVKGRFTISRDNAKNTVYLQMNSLKPEDTAVYYCAALQADRDRYPAFDLMDYWGQGTQVTVSS", "polyreactivity (PSR sort gate)": "low polyreactivity"}
{"sequence": "QVQLGESGGGLVQAGGSLRLSCAASGFSFWYYPMGWYRQAPGKERELVASIRYSGDSTSYADSVKGRFTISRDNAKNNVYFQMNSLKAEDTEVYYSAAVRYWYASYYTYEYWGQGTQVSVSS", "polyreactivity (PSR sort gate)": "high polyreactivity"}
{"sequence": "QVQLVESGGGLVQAGGSLRLSCAASGITYGYVMGLYRQAPGKERELVAAISYRGGSTYYADSVKGRFTISRDNAKNTVYLQMNSLKPEDTAVYYCATEASGKTYGYVAYDYWGQGTQVTVSS", "polyreactivity (PSR sort gate)": "high polyreactivity"}
{"sequence": "QVQLEESGGGLVQAGGSLRLSCAGSGRIFIHYTMGWYRQAPGKERELVAAISTSGGSTYYADSVKGRFTISRDTAKNTVYLQMKSLKPEDTAGYYCAPVYRGYSGEGYYWGQGSQVTVSS", "polyreactivity (PSR sort gate)": "high polyreactivity"}
